{"source": "patent US6106844A", "about": "“Immunomodulatory peptides of vespid antigen 5” (The Rockfeller University, priority 1998, dated 2000)", "molecules": {"B1": {"name": "r-Ag5: recombinant white faced hornet (Dolichovespula maculata) antigen 5 form 2, Dol m 5.02 (protein)", "chain": "NNYCKIKCSRGIHTLCKFGTSMKPNCGSKLVKVHGVSNDEKNEIVNRHNQFRQKVAKGLETRGNPGPQPPAKNMNVLVWNDELAKIAQTWANQCSFGHDQCRNTEKYQVGQNVAIASTTGNSYATMSKLIEMWENEVKDFNPKKGTMGDNNFSKVGHYTQMVWGKTKEIGCGSVKYIENNWHTHYLVCNYGPAGNYMDQPIYERK"}}, "key": {"[1]": {"test_system": "Ag5 specific spleen cells from BALB/c mice", "experiment": "In vitro proliferation assay, spleen cells of Ag5-immunized BALB/c mice", "assay_type": "cell-based", "settings": "spleen cells from mice immunized with rAg5; blank 3970 cpm", "experimental": "FIG. 4. Stimulation index profile of BALB/c mice spleens after 4 immunizations with natural (n)-Ag5. In vitro proliferation assays were performed with peptides at three concentrations: 1×10^-5 M (open bar), 1.25×10^-6 M (\"uphill\" hatch), and 1.56×10^-7 M (\"downhill\" hatch). The corresponding concentrations of recombinant antigen 5 control were 1.0×10^-6 M, 1.25×10^-7, and 1.56×10^-8 M. The blank was 2200 cpm.\nFIG. 5. Stimulation index profile of BALB/c mice spleens after 4 immunizations with recombinant (r)-Ag5. In vitro proliferation assays were performed with peptides at three concentrations: 1×10^-5 M (open bar), 1.25×10^-6 M (\"uphill\" hatch), and 1.56×10^-7 M (\"downhill\" hatch). The corresponding concentrations of recombinant Antigen 5 were 1.0×10^-6 M, 1.25×10^-7, and 1.56×10^-8 M. The blank was 4700 cpm.\nFIG. 6. […] In vitro proliferation assays were performed with peptides at three concentrations: 1×10^-5 M (open bar), 1.25×10^-6 M (\"uphill\" hatch), and 1.56×10^-7 M (\"downhill\" hatch). The corresponding concentrations of recombinant Antigen 5 were 1.0×10^-6 M, 1.25×10^-7, and 1.56×10^-8 M. […]\n(§1) The peptides of the invention can be tested in a proliferation assay for T cell responses. Generally, lymphocytes from a sensitized host are obtained. The host can be a mouse that has been immunized with a vespid venom antigen 5, or with a crossreactive protein, such as testes specific protein. Using techniques that are well known in the art, T lymphocyte response to the peptide can be measured in vitro. In a specific embodiment, infra, T cell responses are detected by measuring incorporation of ^3 H-thymidine, which increases with DNA synthesis associated with proliferation. Cell proliferation can also be detected using an MTT assay [Mossman, J. Immunol. Methods, 65:55-63,(1983); Niks and Otto, J. Immunol. Methods, 130:140-151 (1990)]. Alternatively, lymphokine production assays can be practiced according to the present invention. In one embodiment, lymphokine production can be assayed using immunological or co-stimulation assays [see, e.g., Fehlner et al., J. Immunol., 146:799 (1991)] or using the ELISPOT technique [Czerkinsky, et al., J. Immunol. Methods, 110:29 (1988)]. Alternatively, mRNA for lymphokines can be detected, e.g., by amplification [see Brenner, et al., Biotechniques, 7:1096 (1989)] or in situ hybridization [see, e.g., Kasaian and Biron, J. Immunol., 142:1287 (1989)]. Of particular interest are those individuals whose T cells produce lymphokines associated with IgE isotype switch events, e.g., IL-4 and IL-5 [Purkeson and Isakson, J. Exp. Med., 175:973-982 (1992)]. Also of interest are the peptide fragments of the vespid venom antigen 5 that contain epitopes recognized by T cells involved in IgE switch events. […]"}, "[2]": {"test_system": "r-Ag5 specific spleen cells from ASW/Sn mice", "experiment": "In vitro proliferation assay, spleen cells of r-Ag5-immunized ASW/Sn mice", "assay_type": "cell-based", "settings": "spleen cells from mice immunized 5 times with rAg5; blank 5640 cpm", "experimental": "FIG. 11. Stimulation index profile of ASW/sn mice spleens after 5 immunizations with r-Ag5. In vitro proliferation assays were performed with peptides at three concentrations: 1×10^-5 M (open bar), 1.25×10^-6 M (\"uphill\" hatch), and 1.56×10^-7 M (\"downhill\" hatch). The corresponding concentrations of recombinant Antigen 5 were 1.0×10^-6 M, 1.25×10^-7, and 1.56×10^-8 M. The blank was 5640 cpm.\nas §1"}, "n-Dol m 5.01": {"target": "T1, n-Dol m 5.01 (Dolichovespula maculata, UniProt P10736)", "T1 construct": "from tissue; host or cells: natural protein", "T1 sequence (P10736 24-227)": "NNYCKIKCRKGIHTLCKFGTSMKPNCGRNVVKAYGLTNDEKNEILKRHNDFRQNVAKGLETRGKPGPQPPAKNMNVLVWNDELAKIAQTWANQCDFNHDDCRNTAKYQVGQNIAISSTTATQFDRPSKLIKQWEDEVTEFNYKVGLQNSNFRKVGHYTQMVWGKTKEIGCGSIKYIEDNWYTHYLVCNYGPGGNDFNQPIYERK", "experiment": "Antibody response by direct ELISA of mice immunized with recombinant white faced hornet Ag5, wells coated with n-Dol m 5.01", "assay_type": "in vivo", "settings": "week five sera after three i.p. immunizations with rDol m 5.02 and alum", "experimental": "Antibody response in mice of different haplotypes to recombinant hornet Ag5. Five strains of mice were immunized with recombinant (r) white faced hornet Ag5 and alum as adjuvant. […] The antibody titers (the reciprocal of the dilution yielding 50% of maximum signal extrapolated from ELISA curves in wells coated with r-Dol m 5.02 or n-Dol m 5.01) of these sera for n-(natural) and r-Ag5 are given in Table 3.\n*Sera are from week five bleeding after three intraperitoneal\nimmunizations with 0.2 ml of 10 μg/ml rDol m 5.02 and alum (5 μg/ml\nin 0.05 m sodium phosphate buffer, pH 6.2, on weeks 0, 2, and 4."}}}
{"molecule": "B1", "values": [{"measurement": "Stimulation Index BALB/c", "setting": "[1]", "value": 20.9}, {"measurement": "Stimulation Index ASW/Sn", "setting": "[2]", "value": 15.4}, {"measurement": "Half maximal Ab titer n-Dol m 5.01", "setting": "n-Dol m 5.01; ASW/Sn mice (haplotype s)", "value": "1 × 10^5"}, {"measurement": "Half maximal Ab titer n-Dol m 5.01", "setting": "n-Dol m 5.01; BALB/c byj mice (haplotype d)", "value": "4 × 10^4"}, {"measurement": "Half maximal Ab titer n-Dol m 5.01", "setting": "n-Dol m 5.01; C3H/He mice (haplotype k)", "value": "2 × 10^3"}, {"measurement": "Half maximal Ab titer n-Dol m 5.01", "setting": "n-Dol m 5.01; C57B1/6 mice (haplotype b)", "value": "2 × 10^1"}, {"measurement": "Half maximal Ab titer n-Dol m 5.01", "setting": "n-Dol m 5.01; P/J mice (haplotype p)", "value": "1 × 10^4"}]}
